Reference: publication PMC7586039

Biological target: HPV16 pseudovirions (human papillomavirus type 16) (UniProt P03101)

Substance	IC50 of inhibition of HPV16 PsV infection of HeLa cells (PsV pretreated with the defensin) [µM]
α-defensin HD5 (peptide)	26
RTD-4 (from UniProt P82270 65-76) (peptide)	101
Rhesus Theta Defensin-1 (from UniProt P82270 65-76; P82271 65-76) (peptide)	14
